Substitutions are numbered along the chain they refer to. Where two headings read alike, the source gives them in different places. One block for each binder: values may come before it.
Legend:
[1] = biological target: T1, human DLL4 extracellular domain (human, UniProt Q9NR61 27-529); experiment: SPR (Biacore)
T1 construct: purified recombinant ECD; biotin-labelled or 6xHis-tagged depending on the assay; also called huDLL4 ECD; hu DLL4 ECD
Method: (§1) The BIACORE® surface plasmon resonance assay (Biacore, Inc., Piscataway, N.J., US) determines the affinity of antibodies with kinetic measurements of on-rate and off-rate constants. Binding of DLL4 antibodies to a purified recombinant DLL4 extracellular domain (ECD) was determined by surface plasmon resonance-based measurements with a Biacore® instrument (either a Biacore 2000, Biacore 3000, or Biacore T100; GE Healthcare, Piscataway, N.J., US) using running buffer HBS-EPB (10 mM HEPES [pH 7.4], 150 mM NaCl, 3 mM EDTA, 0.1 mg/ml BSA and 0.005% surfactant P20) at 25° C. For example, approximately 9000 RU of goat anti-human Fc specific polyclonal antibody (Thermo Fisher Scientific Inc., Rockford, Ill., US) diluted in 10 mM sodium acetate (pH 4.5) is directly immobilized across a CMS research grade biosensor chip using a standard amine coupling kit according to manufacturer's instructions and procedures at 25 μg/ml. Unreacted moieties on the biosensor surface were blocked with ethanolamine. For kinetic analysis, rate equations derived from the 1:1 Langmuir binding model were fitted simultaneously to multiple antigen injections (using global fit analysis) with the use of Scrubber 2 (BioLogic Software), Biacore Biaevaluation 4.0.1 software or Biacore T100 Evaluation software. Purified antibodies were diluted in running buffer for capture across goat anti-human Fc reaction surfaces. Antibodies to be captured as a ligand (1 μg/ml) were injected over reaction matrices at a flow rate of 10 μl/min. During the assay, all measurements were referenced against the capture surface alone (i.e., with no captured anti-DLL4 antibody). […] The equilibrium dissociation constant KD (M) of the reaction between antibodies and the target antigen was then calculated from the kinetic rate constants by the following formula: KD=Koff/Kₒₙ. Binding was recorded as a function of time and kinetic rate constants were calculated.

[2] = biological target: T2, mouse DLL4 extracellular domain (mouse, UniProt Q9JI71 27-532); experiment: SPR (Biacore)
T2 construct: extracellular domain; also called muDLL4 ECD; murine DLL4
T2 sequence (Q9JI71 27-532): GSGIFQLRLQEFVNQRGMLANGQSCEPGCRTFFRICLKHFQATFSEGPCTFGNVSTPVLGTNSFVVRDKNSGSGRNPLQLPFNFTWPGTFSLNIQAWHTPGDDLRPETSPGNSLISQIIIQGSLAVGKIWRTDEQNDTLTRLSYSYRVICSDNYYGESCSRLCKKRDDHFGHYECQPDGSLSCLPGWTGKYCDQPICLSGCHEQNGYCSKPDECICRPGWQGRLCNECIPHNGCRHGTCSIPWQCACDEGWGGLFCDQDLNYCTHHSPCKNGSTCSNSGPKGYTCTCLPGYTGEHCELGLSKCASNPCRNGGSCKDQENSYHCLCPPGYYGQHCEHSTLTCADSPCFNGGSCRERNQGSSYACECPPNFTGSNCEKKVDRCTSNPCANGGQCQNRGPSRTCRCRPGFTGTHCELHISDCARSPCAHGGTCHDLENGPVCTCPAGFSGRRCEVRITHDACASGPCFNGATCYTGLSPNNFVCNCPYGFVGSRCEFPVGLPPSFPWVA
Method: as §1

[3] = biological target: T1, human DLL4 extracellular domain; experiment: binding ELISA
Method: (§2) Plates were then washed 3 times. 100 μl/well of recombinant rat/human chimeric or recombinant human anti-DLL4 antibodies were then added to the plate (0.00164-27 nM, 4-fold serial dilution in ELISA buffer=PBST, 10% Superblock (Pierce #37515)) for 1 hour at 25° C. with shaking and then washed again 3 times. Plates were incubated with goat anti-human HRP (Pierce #31412) (1:40,000 dilution in ELISA buffer, 100 μl/well) for 1 hour at 25° C. with shaking, then washed 3 times. After the final wash, plates were incubated with 100 μl/well ELISA substrate (Sigma #T8665). The reaction was stopped after 8 minutes at 25° C. with 100 μl/well 1N HCl and the absorbance was read at 450 nm. Data were analyzed using Graphpad Prism software, and EC50 values were reported.
(§3) Purified variants were further characterized for their affinities for human, murine and cynomolgus DLL4 by binding ELISA (Example 1.2, Method 2), by Biacore (Example 1.1), and by Flow Cytometry (FACS). […] The humanized variants were then tested for their functionality with human and murine DLL4 by competition ELISA (Example 1.3) and by Notch reporter assay (Example 1.6).

[4] = biological target: T3, cynomolgus monkey DLL4 extracellular domain (cynomolgus monkey); experiment: binding ELISA
T3 construct: extracellular domain; also called cynoDLL4 ECD; Cyno DLL4
Method: as §2, §3

[5] = biological target: T2, mouse DLL4 extracellular domain; experiment: binding ELISA
Method: as §2, §3

[6] = biological target: T1, human DLL4 extracellular domain; experiment: SPR (Biacore); remark: listed apart in the source
Procedure, shortened: (§4)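 Purified anti-DLL4 antibodies (1 μg/ml) captured on immobilized goat anti-human Fc, with DLL4 ECD injected as analyte; HBS-EPB running buffer (pH 7.4), 25° C, referenced against capture-only surface. On/off rates from global 1:1 Langmuir fit; KD = Koff/Kon.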

[7] = biological target: T3, cynomolgus monkey DLL4 extracellular …; experiment: SPR (Biacore)
Procedure, shortened: as §4

[8] = biological target: T2, mouse DLL4 extracellular domain; experiment: SPR (Biacore); remark: listed apart in the source
Procedure, shortened: as §4

[9] = biological target: T4, rat DLL4 extracellular domain (rat, UniProt D3ZHH1 28-530); experiment: SPR (Biacore)
T4 construct: extracellular domain; also called ratDLL4 ECD
T4 sequence (D3ZHH1 28-530): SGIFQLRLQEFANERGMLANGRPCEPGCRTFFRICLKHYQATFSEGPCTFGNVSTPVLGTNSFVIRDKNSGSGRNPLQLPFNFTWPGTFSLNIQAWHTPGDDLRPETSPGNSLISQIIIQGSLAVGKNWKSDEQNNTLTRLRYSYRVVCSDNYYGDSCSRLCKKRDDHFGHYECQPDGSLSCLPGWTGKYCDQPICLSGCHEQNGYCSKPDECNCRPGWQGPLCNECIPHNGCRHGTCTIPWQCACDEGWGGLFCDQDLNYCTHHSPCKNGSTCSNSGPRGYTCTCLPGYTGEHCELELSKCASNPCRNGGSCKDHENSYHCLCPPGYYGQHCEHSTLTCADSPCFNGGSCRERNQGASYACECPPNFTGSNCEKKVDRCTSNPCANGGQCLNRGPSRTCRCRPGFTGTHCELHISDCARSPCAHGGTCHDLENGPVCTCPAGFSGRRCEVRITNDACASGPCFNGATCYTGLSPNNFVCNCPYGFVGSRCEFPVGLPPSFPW
Procedure, shortened: as §4

[10] = biological target: T5, human DLL4, full length, on cells (human, UniProt Q9NR61 27-685); experiment: FACS, DLL4 cells
T5 construct: also called huDLL4 cells; human DLL4-293G
T5 sequence (Q9NR61 27-685 limits assumed): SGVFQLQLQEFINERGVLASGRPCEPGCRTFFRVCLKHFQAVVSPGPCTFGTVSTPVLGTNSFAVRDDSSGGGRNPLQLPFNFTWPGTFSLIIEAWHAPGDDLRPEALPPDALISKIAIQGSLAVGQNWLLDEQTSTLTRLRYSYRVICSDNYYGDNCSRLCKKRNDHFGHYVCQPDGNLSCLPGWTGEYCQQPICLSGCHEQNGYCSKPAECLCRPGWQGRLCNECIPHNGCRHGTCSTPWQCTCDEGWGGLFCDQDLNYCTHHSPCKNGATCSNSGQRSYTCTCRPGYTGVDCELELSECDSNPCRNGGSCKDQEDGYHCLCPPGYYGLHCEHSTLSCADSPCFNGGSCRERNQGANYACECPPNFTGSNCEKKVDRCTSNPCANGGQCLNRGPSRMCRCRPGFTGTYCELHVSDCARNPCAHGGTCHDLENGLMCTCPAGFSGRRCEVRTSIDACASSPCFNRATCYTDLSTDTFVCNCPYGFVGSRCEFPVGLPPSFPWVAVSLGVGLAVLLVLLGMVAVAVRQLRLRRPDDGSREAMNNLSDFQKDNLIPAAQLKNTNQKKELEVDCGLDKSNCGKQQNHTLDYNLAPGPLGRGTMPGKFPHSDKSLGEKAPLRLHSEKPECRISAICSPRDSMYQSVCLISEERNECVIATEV

mouse DLL4 on cells = biological target: T6, mouse DLL4 on cells (mouse, UniProt Q9JI71 27-686); experiment: FACS, DLL4 cells
T6 construct: whole, on cells; also called mouse DLL4-293G; mu DLL4 cells
T6 sequence (Q9JI71 27-686): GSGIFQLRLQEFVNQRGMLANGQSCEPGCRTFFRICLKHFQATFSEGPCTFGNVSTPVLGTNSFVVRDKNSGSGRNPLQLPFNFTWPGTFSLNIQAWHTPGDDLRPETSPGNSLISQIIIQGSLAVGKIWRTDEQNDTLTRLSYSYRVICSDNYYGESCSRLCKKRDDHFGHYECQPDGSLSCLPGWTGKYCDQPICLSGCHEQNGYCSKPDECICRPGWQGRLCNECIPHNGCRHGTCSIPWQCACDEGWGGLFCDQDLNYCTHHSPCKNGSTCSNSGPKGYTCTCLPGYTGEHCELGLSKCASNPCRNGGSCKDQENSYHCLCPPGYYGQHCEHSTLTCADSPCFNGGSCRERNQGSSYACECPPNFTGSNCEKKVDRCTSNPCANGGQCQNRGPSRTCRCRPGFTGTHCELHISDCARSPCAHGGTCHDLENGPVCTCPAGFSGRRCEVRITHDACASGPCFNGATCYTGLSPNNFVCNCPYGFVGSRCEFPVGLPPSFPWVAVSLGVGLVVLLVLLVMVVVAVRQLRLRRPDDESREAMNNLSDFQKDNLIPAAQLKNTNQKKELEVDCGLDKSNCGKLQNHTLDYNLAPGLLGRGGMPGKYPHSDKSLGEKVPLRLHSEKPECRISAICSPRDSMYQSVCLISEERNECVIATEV

[11] = biological target: T5, human DLL4, full length, on cells; experiment: cell-based or functional assay
[12] = biological target: T1, human DLL4 extracellular domain; experiment: competition ELISA vs Notch-1
Method: (§5) Plates were then washed 3 times with wash buffer (PBS, 0.05% Tween-20) and blocked with 200 μl/well blocking buffer (D-PBS, 1% BSA, 1 mM CaCl₂, 0.05% Tween-20) for 1 hour at 25° C. While blocking, biotin labeled DLL4 extracellular domain (14 nM) was mixed with antibody (30 pM-66 nM, 3-fold serial dilution in blocking buffer) for 1 hour at 25° C. with shaking. Assay plates were washed after blocking, and incubated with DLL4/antibody mixtures (100 μl/well, 1 hour at 25° C. with shaking). Plates were washed again and 100 μl/well streptavidin conjugated with HRP (Fitzgerald #65R-S104PHRPx, diluted 1:5,000 in blocking buffer) was added for 1 hour at 25° C. with shaking. After a final wash, plates were developed using 100 μl/well substrate (TMB Sigma #T8665), and the reaction was stopped using 100 μl/well 1N HCl, and the absorbance was read at 450 nm. Data were analyzed using Graphpad Prism software and IC₅₀ values were reported as the concentration of antibody to achieve 50% reduction of DLL4 bound to Notch1.
as §3

[13] = biological target: T2, mouse DLL4 extracellular domain; experiment: competition ELISA vs Notch-1
Method: as §5, §3

T1 sequence (Q9NR61 27-529 limits assumed): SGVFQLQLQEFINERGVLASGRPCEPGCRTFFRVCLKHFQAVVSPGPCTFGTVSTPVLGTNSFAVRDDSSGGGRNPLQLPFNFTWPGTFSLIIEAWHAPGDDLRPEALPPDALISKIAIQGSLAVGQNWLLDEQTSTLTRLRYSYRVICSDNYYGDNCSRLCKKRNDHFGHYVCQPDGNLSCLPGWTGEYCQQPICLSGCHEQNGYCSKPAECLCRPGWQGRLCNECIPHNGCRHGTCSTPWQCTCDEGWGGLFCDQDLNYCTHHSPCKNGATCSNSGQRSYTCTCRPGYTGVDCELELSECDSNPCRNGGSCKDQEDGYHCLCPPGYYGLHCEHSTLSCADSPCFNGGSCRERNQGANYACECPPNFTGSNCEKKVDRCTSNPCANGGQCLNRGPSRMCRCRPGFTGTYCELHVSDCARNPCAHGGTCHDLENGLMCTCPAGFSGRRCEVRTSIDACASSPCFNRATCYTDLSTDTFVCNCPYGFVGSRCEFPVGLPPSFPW

Kd [1]: 15 nM
Kd [2]: 38 nM
EC50 [3]: 0.08 nM
EC50 [4]: 0.13 nM
EC50 [5]: 0.09 nM
Kd [6]: 13 nM
koff [6]: 0.00212 s⁻¹
kon [6]: 158000 M⁻¹ s⁻¹
Kd [7]: 18 nM
koff [7]: 0.00255 s⁻¹
kon [7]: 144000 M⁻¹ s⁻¹
Kd [8]: 32 nM
koff [8]: 0.00498 s⁻¹
kon [8]: 156000 M⁻¹ s⁻¹
binding result [9]: no binding
EC50 [10]: 3.13 nM
EC50 (mouse DLL4 on cells): 0.21 nM
Reporter Assay (EC50, nM) [11]: 2.53 nM
IC50 [12]: 0.4 nM
IC50 [13]: 1.3 nM
B1: h1A11.1 (antibody, V domains shown)
VH: EVQLVESGGGLVQPGGSLRLSCAASGFTFSNFPMAWVRQAPGKGLEWVATISSSDGTTYYRDSVKGRFTISRDNAKNSLYLQMNSLRAEDTAVYYCARGYYNSPFAYWGQGTLVTVSS
VL: DIQMTQSPSSLSASVGDRVTITCRASEDIYSNLAWYQQKPGKAPKLLIYDTNNLADGVPSRFSGSGSGTDFTLTISSLQPEDFATYYCQQYNNYPPTFGQGTKLEIKR
notes: humanized IgG; also called hu1A11.1; VH.1/VL.1 1A11

Kd [1]: 15 nM
Kd [2]: 37 nM
EC50 [3]: 0.07 nM
EC50 [4]: 0.16 nM
EC50 [5]: 0.08 nM
EC50 [10]: 3.51 nM
EC50 (mouse DLL4 on cells): 0.24 nM
Reporter Assay (EC50, nM) [11]: 2.53 nM
IC50 [12]: 0.2 nM
IC50 [13]: 0.9 nM
B2: h1A11.3 (antibody, V domains shown)
VH: B1 VH
VL: B1 VL with Y49F
notes: humanized IgG; also called VH.1/VL.1b 1A11

Kd [1]: 11 nM
Kd [2]: 24 nM
EC50 [3]: 0.06 nM
EC50 [4]: 0.17 nM
EC50 [5]: 0.09 nM
EC50 [10]: 3.34 nM
EC50 (mouse DLL4 on cells): 0.18 nM
Reporter Assay (EC50, nM) [11]: 4.24 nM
IC50 [12]: 0.35 nM
IC50 [13]: 0.9 nM
B3: h1A11.8 (antibody, V domains shown)
VH: B1 VH with N77S, A97S
VL: EIVMTQSPATLSVSPGERATLSCRASEDIYSNLAWYQQKPGQSPRLLIFDTNNLADGVPARFSGSGSGTESTLTISSLQSEDFAVYFCQQYNNYPPTFGQGTKLEIKR
notes: humanized IgG; also called VH.1a/VL.2a 1A11

Kd [1]: 16 nM
Kd [2]: 39 nM
EC50 [3]: 0.08 nM
EC50 [4]: 0.17 nM
EC50 [5]: 0.09 nM
EC50 [10]: 3.61 nM
EC50 (mouse DLL4 on cells): 0.22 nM
Reporter Assay (EC50, nM) [11]: 3.28 nM
IC50 [12]: 0.3 nM
IC50 [13]: 0.9 nM
B4: h1A11.4 (antibody, V domains shown)
VH: B1 VH
VL: B3 VL
notes: humanized IgG; also called VH.1/VL.2a 1A11

Kd [1]: 13 nM
Kd [2]: 34 nM
EC50 [3]: 0.07 nM
EC50 [4]: 0.15 nM
EC50 [5]: 0.09 nM
EC50 [10]: 3.28 nM
EC50 (mouse DLL4 on cells): 0.18 nM
Reporter Assay (EC50, nM) [11]: 3.18 nM
IC50 [12]: 0.3 nM
IC50 [13]: 0.9 nM
B5: h1A11.9 (antibody, V domains shown)
VH: B1 VH with A97S
VL: B1 VL
notes: humanized IgG; also called VH.1b/VL.1 1A11

Kd [1]: 10 nM
Kd [2]: 19 nM
EC50 [3]: 0.08 nM
EC50 [4]: 0.13 nM
EC50 [5]: 0.09 nM
EC50 [10]: 2.85 nM
EC50 (mouse DLL4 on cells): 0.21 nM
Reporter Assay (EC50, nM) [11]: 3.92 nM
IC50 [12]: 0.3 nM
IC50 [13]: 0.9 nM
B6: h1A11.2 (antibody, V domains shown)
VH: B1 VH
VL: B1 VL with A43S, Y49F, F71S, Y87F
notes: humanized IgG; also called VH.1/VL.1a 1A11

Kd [1]: 11.3 nM
Kd [2]: 31 nM
EC50 [3]: 0.08 nM
EC50 [4]: 0.13 nM
EC50 [5]: 0.1 nM
EC50 [10]: 3.74 nM
EC50 (mouse DLL4 on cells): 0.15 nM
Reporter Assay (EC50, nM) [11]: 1.45 nM
IC50 [12]: 0.4 nM
IC50 [13]: 0.8 nM
B7: h1A11.6 (antibody, V domains shown)
VH: B1 VH with N77S, A97S
VL: B1 VL with A43S, Y49F, F71S, Y87F
notes: humanized IgG; also called VH.1a/VL.1a 1A11

Kd [1]: 9.6 nM
Kd [2]: 22 nM
EC50 [3]: 0.07 nM
EC50 [4]: 0.16 nM
EC50 [5]: 0.08 nM
EC50 [10]: 3.61 nM
EC50 (mouse DLL4 on cells): 0.21 nM
Reporter Assay (EC50, nM) [11]: 3.8 nM
IC50 [12]: 0.3 nM
IC50 [13]: 0.8 nM
B8: h1A11.5 (antibody, V domains shown)
VH: B1 VH with N77S, A97S
VL: B1 VL
notes: humanized IgG; also called VH.1a/VL.1 1A11

Kd [1]: 13 nM
Kd [2]: 35 nM
EC50 [3]: 0.06 nM
EC50 [4]: 0.14 nM
EC50 [5]: 0.09 nM
EC50 [10]: 3.71 nM
EC50 (mouse DLL4 on cells): 0.18 nM
Reporter Assay (EC50, nM) [11]: 4.84 nM
IC50 [12]: 0.5 nM
IC50 [13]: 0.9 nM
B9: h1A11.7 (antibody, V domains shown)
VH: B1 VH with N77S, A97S
VL: B1 VL with Y49F
notes: humanized IgG; also called VH.1a/VL.1b 1A11

— patent US20110217237A1 (AbbVie / Abbott, published 2011)
